Measured values published in US20230416825A1.
Where two headings read alike, the source gives them in different places.

What was measured:
[1] = biological target: Recombinant human KLK5 (Genentech) (human) (UniProt Q9Y337); experiment: cell-based or functional assay
[2] = biological target: Recombinant human KLK5 (Genentech) (human) (UniProt Q9Y337); experiment: cell-based or functional assay; remark: listed apart in the source

Sequence of UniProt Q9Y337 (Q9Y337 67-293 limits assumed, form in doubt): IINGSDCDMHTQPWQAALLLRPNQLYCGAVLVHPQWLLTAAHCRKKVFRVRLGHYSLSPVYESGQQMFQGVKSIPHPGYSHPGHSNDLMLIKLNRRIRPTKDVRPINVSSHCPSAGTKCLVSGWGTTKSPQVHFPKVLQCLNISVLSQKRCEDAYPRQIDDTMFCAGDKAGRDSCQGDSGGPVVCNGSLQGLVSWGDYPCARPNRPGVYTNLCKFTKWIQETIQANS

IC50, LC/MS assay of KLK5 (0.5 nM) cleavage of pro-KLK1 [1] [nM] | IC50, LC/MS assay of KLK5 (5 nM) cleavage of pro-KLK7 (15 nM) [1] [nM] | direct KLK5 activity assay at 20, 10, 5 and 2.5 nM KLK5: reduction in cleavage of the fluorescent peptide substrate [1] [%] | maximum KLK5 inhibition, LC/MS assay of KLK5 (0.5 nM) cleavage of pro-KLK1 [1] [%] | IC50, LC/MS assay of KLK5 (0.5 nM) cleavage of pro-KLK1 [2] [nM] | IC50, LC/MS assay of KLK5 (5 nM) cleavage of pro-KLK7 (15 nM) [2] [nM] | Molecule
0.34 | 1.86 | 30 | 40 | – | – | mAb1108 (Monoclonal Mouse IgG2b Clone #193318, R & D Systems, Minneapolis, MN) (antibody)
– | – | – | – | 0.58 | 1.13 | SPINK9 (I20-C86.C22S.H48R.M49E)-Fc (Fc fusion, not shown: a dimerising Fc or GST) IESAKQTKQMVDCSHYKKLPPGQQRFCHREYDPICGSDGKTYKNDCFFCSKVKKTDGTLKFVHFGKC
